How the values were obtained:
Experiment in all cases: SPR
[1] = target: human uracil DNA glycosylase (human UDG) (human) (UniProt P13051)
[2] = target: Mycobacterium tuberculosis uracil DNA glycosylase (TBUDG) (Mycobacterium tuberculosis) (UniProt P9WFQ9)
[3] = target: Epstein-Barr virus (human herpesvirus 4) uracil DNA glycosylase (EBVUDG) (Epstein-Barr virus (EBV; human herpesvirus 4)) (UniProt P12888)

| Substance | Kd [1] [nM] | koff [1] [s⁻¹] | kon [1] [M⁻¹ s⁻¹] | Kd [2] [nM] | ka1 (two-state model, step 1) [2] [M⁻¹ s⁻¹] | ka2 (two-state model, step 2) [2] [M⁻¹ s⁻¹] | kd1 (two-state model, step 1) [2] [s⁻¹] | Kd [3] [nM] | koff [3] [s⁻¹] | kon [3] [M⁻¹ s⁻¹] |
| --- | --- | --- | --- | --- | --- | --- | --- | --- | --- | --- |
| SAUGI E24AQ52R (natural protein) | 3.3 | 0.00529 | 1.6e+06 |  |  |  |  |  |  |  |
| Staphylococcus aureus uracil-DNA glycosylase inhibitor SAUGI (natural protein) | 1.96 | 0.00361 | 1.85e+06 | 198 | 4.32e+06 | 20 | 1.39 | 0.475 | 0.0012 | 2.54e+06 |

Reference: PMC4872100
